Earlier results, collected in article PMC8797470, “Disruption of the pentraxin 3/CD44 interaction as an efficient therapy for triple‐negative breast cancers” (Clinical and Translational Medicine, 2022).

Target: PTX3 (Homo sapiens) (UniProt P26022)
Sequence (P26022 18-381): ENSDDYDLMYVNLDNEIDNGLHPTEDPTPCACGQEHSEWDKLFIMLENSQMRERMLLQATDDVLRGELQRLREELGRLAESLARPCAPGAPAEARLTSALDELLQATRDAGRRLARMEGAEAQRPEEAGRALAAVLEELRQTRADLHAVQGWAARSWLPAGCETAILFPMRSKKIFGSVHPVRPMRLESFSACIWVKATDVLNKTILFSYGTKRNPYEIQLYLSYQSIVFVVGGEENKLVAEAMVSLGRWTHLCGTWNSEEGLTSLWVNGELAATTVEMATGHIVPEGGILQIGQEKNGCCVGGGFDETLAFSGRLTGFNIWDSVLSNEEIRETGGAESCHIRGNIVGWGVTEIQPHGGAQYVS

Chain of TSG-6 link module (P98066 36-129): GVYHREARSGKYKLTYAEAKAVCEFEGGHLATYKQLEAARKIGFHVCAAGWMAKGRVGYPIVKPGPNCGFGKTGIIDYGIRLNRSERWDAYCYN

TSG-6 link module (from UniProt P98066)
Kd: 481 nM
